Reference: patent US7208311B2, “Catalytic domain of ADAM33 and methods of use thereof” (Schering Corporation, priority 2002, dated 2007)
Residue numbers refer to the chain shown, from its start. Numbers in names are those of the source. Each block holds one molecule with its values, some of them ahead of it.

Legend:
[1] = biological target: T1, ADAM33 (Homo sapiens, UniProt Q9BZ11); assay: MCF 12-mer peptide proteolysis assay (HPLC); type: biochemical; settings: for ADAM33 activity in the presence of inhibitor: 1 mM inhibitor
T1 construct: made in house; host or cells: Drosophila melanogaster S2 cells
T1 sequence (Q9BZ11 204-409): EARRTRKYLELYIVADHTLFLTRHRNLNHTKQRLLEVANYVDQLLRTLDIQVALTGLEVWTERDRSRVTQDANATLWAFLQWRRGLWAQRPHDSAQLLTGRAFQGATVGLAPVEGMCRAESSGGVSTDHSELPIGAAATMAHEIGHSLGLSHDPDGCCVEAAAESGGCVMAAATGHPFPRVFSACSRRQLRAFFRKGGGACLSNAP
Method: A 12-mer peptide (i.e. Ac-LPPVAASSLNRD-NH2; SEQ ID NO: 48), derived from human mast-cell growth factor (accession number NP-038626) was synthesized as a substrate for ADAM33. Reactions were initiated by addition of 200 nM enzyme to appropriate amounts of substrate in assay buffer (25 mM HEPES, pH 7.5, 0.5 M NaCl, 0.1% n-octyl-β-D-glucoside), incubated at 22° C. for 2 h and subsequently quenched with 1% TFA. When inhibitors were evaluated, the enzyme and inhibitors were preincubated at 22° C. for 30 min prior to initiation of the assays. Substrate and products were separated by HPLC using a C-8 reverse phase column (Zobrax 3.5 μm, 4.6 mmD/5 cmL, Agilent, Palo Alto, Calif., 0.1% TFA acetonitrile/H2O). Elution was monitored at 214 nm, and peaks identified by mass spectroscopy. Initial rates of proteolysis were determined using reactions in which less than 10% of the substrate was consumed. kcat/Km values were calculated assuming the enzymes were 100% active.
Production of ADAM33 and mutants thereof were produced essentially as described in Example 1. Proteolytic assays and methods for determining catalytic rates are essentially as described in Examples 2 and 3.

[2] = biological target: T1, ADAM33; assay: HPLC peptide substrate cleavage assay with ADAM33; type: biochemical; settings: for cleavage site of peptide: identified by MALDI-TOF MS; for cleavage of peptide by ADAM33: peptide 50 μM, ADAM33 0.1–0.5 μM, 2 h RT
Method: (§1) The peptide substrate (50 μM) was incubated with or without ADAM33 (0.1–0.5 μM) in assay buffer (20 mM HEPES, pH 7.5, 0.5 M NaCl, 0.2 mg/ml bovine serum albumin (BSA)) for 2 hours (h) at room temperature (RT) in the presence or absence of various inhibitors [5 mM 1, 10-phenanthroline, or a protease inhibitor cocktail (2 μg/ml leupeptin, 0.4 μM benzamidine, 10 μg/ml soybean trypsin inhibitor and 0.5 mM iodoacetamide)]. The reaction was stopped by adding 10% trifluoroacetic acid (TFA) to a final concentration of 1% and samples were analyzed on Agilent HPLC model 1100 with C8 column. Solvents were: A, 0.1% TFA in water; B, 0.09% TFA in acetonitrile. A linear gradient from 2 to 42% B was run over 7 min at 1.5 ml/min and the eluate was monitored at 214 nm. The percentage of peptide cleavage was calculated using the peak area of the cleaved products divided by the sum of the peak areas of both the products and the remaining substrate. The cleavage sites of the peptide were identified by matrix-assisted laser-desorption/ionization time-of-flight (MALDI-TOF) mass spectrometry.
(§2) Specificity constants of peptide substrates, APP and KL-1, were obtained by using the HPLC assay described above. In brief, ADAM33cat (80 nM) was incubated with peptide substrate (30–2000 μM) in assay buffer for 10–60 min at RT. Reactions were timed to allow less than 15% turnover of the substrate. The initial cleavage velocities of the peptides were obtained by plotting cleaved product versus reaction time. The specificity constants, kcat/Km, were determined based on best fit of the data with the Michaelis-Menten equation when substrate concentration S<<Km.

[3] = biological target: T1, ADAM33; assay: HPLC inhibition assay, ADAM33cat with KL-1 peptide substrate; type: biochemical; settings: ADAM33cat 80 nM, KL-1 peptide 100 μM, 2 h RT
Method: The inhibition dissociation constants (Ki) for inhibitors were determined as follows: an HPLC assay was performed in the presence or absence of inhibitors for 2 h at RT using ADAM33cat (80 nM) and KL-1 peptide substrate (100 μM). For testing tissue inhibitor of metalloproteinases (TIMPs), ADAM33 and human TIMPs were pre-incubated for 1 h at RT. […] Initial velocities were calculated by dividing cleaved product over reaction time. The initial velocities were plotted as a function of inhibitor concentration. For tight binding inhibitors (IK682, TIMP-3), the apparent inhibitor dissociation constants (Ki app values) were calculated by fitting the curve to the following modified Morrison's equation: vi=vo{[(Eo−Io−Ki^app)^2+4 Ki^appEo]^1/2+(Eo−IoKI^app)}/2Eo where Ki^app=Ki(1+S/Km), vo is the uninhibited initial velocity, vi is the initial velocity in the presence of inhibitor at any given inhibitor concentration Io, and Eo is initial enzyme concentration. When the substrate concentration S<<Km, Ki^app is approximately equal to Ki.

[4] = substrate: CC(C)C[C@H](NC(=O)[C@H](CCCCN)NC(=O)[C@H](CCC(N)=O)NC(=O)[C@H](Cc1c[nH]cn1)NC(=O)[C@H](Cc1c[nH]cn1)NC(=O)[C@@H](NC(=O)[C@H](CCC(=O)O)NC(=O)[C@@H](N)Cc1ccc(O)cc1)C(C)C)C(=O)N[C@H](C(=O)N[C@@H](Cc1ccccc1)C(=O)O)C(C)C; assay: HPLC peptide substrate cleavage assay with ADAM33; type: biochemical, human; settings: other: ADAM33cat 80 nM, turnover <15%; pH 7.5
Method: as §1, §2

[5] = substrate: CC(C)C[C@H](NC(=O)[C@H](CO)NC(=O)[C@H](CO)NC(=O)[C@H](C)NC(=O)[C@H](C)NC(=O)[C@@H](NC(=O)[C@@H]1CCCN1C(=O)[C@@H]1CCCN1)C(C)C)C(=O)N[C@@H](CCCNC(=N)N)C(=O)N[C@@H](CC(N)=O)C(=O)O; assay: HPLC peptide substrate cleavage assay with ADAM33; type: biochemical, human; settings: other: ADAM33cat 80 nM, turnover <15%; pH 7.5
Method: as §1, §2

[6] = Thermal denaturation monitored by circular dichroism (220 nm); type: physicochemical
Method: The effect of CaCl2 on the stability of the ADAM33 N231Q catalytic domain as determined by thermal denaturation: The effect of the concentration of CaCl2 on the retention of the secondary structure of the ADAM33 N231 Q catalytic domain was monitored by circular dichroism (λ220 nm) as a function of temperature. A parallel study was performed replacing the CaCl2 with NaCl to control for the effect of the corresponding increase in ionic strength. The ADAM33 N231Q catalytic domain was purified as described above and then diluted to 0.2 mg/ml. The sample was then dialyzed against 25 mM Hepes, pH 7.5, 5% glycerol overnight. The temperature dependent protein denaturation was performed using a JASCO 810 spectropolarimeter under the following conditions: • Protein concentration: 0.2 mg/ml (based on a BioRad Protein Assay) • Cell length: 0.1 cm • Monitor wavelength: 220 nm • Temperature slope: 2° C./min • Measurement range: 20–80° C.

ADAM33 activity in the presence of inhibitor [1]: completely abolished
Molecule: c1cnc2c(c1)ccc1cccnc12 [1,10-phenanthroline]

Km ([1]; 200 nM enzyme, 10–500 μM substrate, room temperature): > 500 µM
Molecule: Ac-LPPVAASSLNRD-NH2 [MCF substrate peptide]
cleavage site of MCF peptide by wild-type ADAM33 [1]: between the residues corresponding to Ala-190 and Ser-191

cleavage site of peptide [2]: A*L
cleavage of peptide by ADAM33 [2]: cleaved
Molecule: insulin B chain: peptide substrate HLVEALYLVC; SEQ ID NO: 45 (insulin B chain peptide)

Ki [3]: 2.85 ± 0.152 µM
Molecule: CC(C)CC(CC(=O)NO)C(=O)N[C@H](C(=O)N[C@@H](C)C(=O)NCCN)C(C)(C)C (mixture of isomers) [Immunex compound 1, N-{DL-[2-(hydroxyamino-carbonyl)methyl]4-methylpentanoyl}-L-3-(tertbutyl)glycyl-L-alanine,2-aminoethylamide]

Ki [3]: 0.157 ± 0.038 µM
Molecule: CNC(=O)[C@@H](NC(=O)[C@H](CC(C)C)[C@H](O)C(=O)NO)C(C)(C)C [Marimastat, N4-[2,2-dimethyl-1(S)-[(methylamino)carbonyl]propyl]-N1,2(S)-dihydroxy-3(R)-(2-methylpropyl) butanediamide]

cleavage site of peptide [2]: H*I
cleavage of peptide by ADAM33 [2]: cleaved
Molecule: TRANCE: peptide substrate VGSQHIRAEK; SEQ ID NO: 44 (TRANCE Peptide)

The next lines start with the molecule.

Molecule: O=C(O)CN(CCN(CC(=O)O)CC(=O)O)CC(=O)O [EDTA]
ADAM33 activity in the presence of inhibitor [1]: completely abolished

B1: ADAM33 (Homo sapiens) (protein)
chain: T1 sequence (Q9BZ11 204-409)
notes: made in house; host or cells: Drosophila melanogaster S2 cells
Km [4]: 1000 ± 100 µM
kcat [4]: 0.2 ± 0.1 s⁻¹
kcat/Km [4]: (1.6±0.3)×10^2 M^−1 s^−1
Km [5]: 3000 ± 100 µM
kcat [5]: 0.7 ± 0.1 s⁻¹
kcat/Km [5]: (2.6±0.5)×10^2 M^−1 s^−1

B2: ADAM33 N231Q: modified ADAM33 catalytic domain N231Q, SEQ ID NO: 8 with C-terminal Ser-Gly His6 Tag (protein)
chain: T1 sequence (Q9BZ11 204-409) with N28Q
modifications: C-terminal Ser-Gly His6 tag; homo sapiens
Denaturation Temp. ([6]; CaCl2 0 mM): 43.5 °C
ΔDenaturation Temp. ([6]; CaCl2 0 mM): 0.0 °C
Denaturation Temp. ([6]; CaCl2 0.003 mM): 50.6 °C
ΔDenaturation Temp. ([6]; CaCl2 0.003 mM): 7.1 °C
Denaturation Temp. ([6]; CaCl2 0.03 mM): 52.9 °C
ΔDenaturation Temp. ([6]; CaCl2 0.03 mM): 9.4 °C
Denaturation Temp. ([6]; CaCl2 0.3 mM): 53.9 °C
ΔDenaturation Temp. ([6]; CaCl2 0.3 mM): 10.4 °C
Denaturation Temp. ([6]; CaCl2 0.5 mM): 56.9 °C
ΔDenaturation Temp. ([6]; CaCl2 0.5 mM): 13.4 °C
Denaturation Temp. ([6]; CaCl2 1.0 mM): 57.9 °C
ΔDenaturation Temp. ([6]; CaCl2 1.0 mM): 14.4 °C
Denaturation Temp. ([6]; CaCl2 2.5 mM): 60.6 °C
ΔDenaturation Temp. ([6]; CaCl2 2.5 mM): 17.1 °C
Denaturation Temp. ([6]; CaCl2 5.0 mM): 61.5 °C
ΔDenaturation Temp. ([6]; CaCl2 5.0 mM): 18.0 °C
Denaturation Temp. ([6]; CaCl2 10.0 mM): 63.3 °C
ΔDenaturation Temp. ([6]; CaCl2 10.0 mM): 19.8 °C
Denaturation Temp. ([6]; CaCl2 25.0 mM): 64.6 °C
ΔDenaturation Temp. ([6]; CaCl2 25.0 mM): 21.1 °C
Denaturation Temp. ([6]; CaCl2 50.0 mM): 65.6 °C
ΔDenaturation Temp. ([6]; CaCl2 50.0 mM): 22.1 °C
Denaturation Temp. ([6]; CaCl2 100.0 mM): 65.2 °C
ΔDenaturation Temp. ([6]; CaCl2 100.0 mM): 21.7 °C

B3: CAT domain: purified catalytic (protease) domain of human ADAM33 (protein)
chain: EARRTRKYLELYIVADHTLFLTRHRNLNHTKQRLLEVANYVDQLLRTLDIQVALTGLEVWTERDRSRVTQDANATLWAFLQWRRGLWAQRPHDSAQLLTGRAFQGATVGLAPVEGMCRAESSGGVSTDHSELPIGAAATMAHEIGHSLGLSHDPDGCCVEAAAESGGCVMAAATGHPFPRVFSACSRRQLRAFFRKGGGACLSNAPSGHHHHHH
catalytic efficiency ([1]; MCF peptide substrate, estimated): 2.6±0.5)×10^2 M^−1 s^−1
